Laboratory results from patent US8530190 (MERCK SERONO, dated 2013).
Residue numbers refer to the chain shown, from its start. Names and notes keep the numbering of the source.

Experiments:
rat LH receptor [1] = molecular target: T1, rat LH receptor (rat, UniProt P16235 27-700); experiment: hormone-receptor complex formation (Table 1D)
T1 construct: whole, on cells; also called LH receptors

human FSH receptor [2] = molecular target: T2, human FSH receptor (human, UniProt P23945 18-695); experiment: hormone-receptor complex formation (Table 1D)
T2 construct: whole, on cells; also called hFSH receptors
T2 sequence (looked up): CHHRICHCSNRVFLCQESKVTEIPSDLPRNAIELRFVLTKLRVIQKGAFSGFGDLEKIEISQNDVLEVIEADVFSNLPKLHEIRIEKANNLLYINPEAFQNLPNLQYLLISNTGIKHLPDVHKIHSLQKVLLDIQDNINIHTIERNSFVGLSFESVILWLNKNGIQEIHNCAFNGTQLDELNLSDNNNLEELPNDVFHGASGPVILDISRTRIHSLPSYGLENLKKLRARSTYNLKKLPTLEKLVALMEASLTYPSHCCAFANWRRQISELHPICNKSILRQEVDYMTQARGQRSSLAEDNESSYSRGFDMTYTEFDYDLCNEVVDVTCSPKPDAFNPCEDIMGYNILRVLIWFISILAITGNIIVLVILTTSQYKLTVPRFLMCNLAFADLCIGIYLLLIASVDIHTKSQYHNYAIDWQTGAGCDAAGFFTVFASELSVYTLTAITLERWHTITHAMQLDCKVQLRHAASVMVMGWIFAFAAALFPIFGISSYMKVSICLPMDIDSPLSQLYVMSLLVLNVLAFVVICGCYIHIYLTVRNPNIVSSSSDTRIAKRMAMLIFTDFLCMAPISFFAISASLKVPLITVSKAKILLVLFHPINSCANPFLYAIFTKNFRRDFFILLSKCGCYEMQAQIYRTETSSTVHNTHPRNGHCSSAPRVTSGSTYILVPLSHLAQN

rat LH receptor [3] = molecular target: T1, rat LH receptor; experiment: inhibition of 125I-hCG binding to 200,000 CHO cells that express LH receptors (FIG. 6)
Description: (§1) These employed CHO cells that had been transfected with the genes encoding the LH receptor cDNA and that therefore express functional LH receptors on their surfaces.

rat LH receptor [4] = molecular target: T1, rat LH receptor; experiment: inhibition of 125I-hCG binding to CHO cells expressing LH receptors (FIG. 30)
Description: as §1

rat LH receptor [5] = molecular target: T1, rat LH receptor; experiment: inhibition of 125I-hCG binding to CHO cells expressing LH receptors (FIG. 17)
Description: as §1

rat LH receptor [6] = molecular target: T1, rat LH receptor; experiment: competition with radiolabeled hCG on CHO cells expressing LH receptors (FIG. 18)
Description: as §1

rat LH receptor [7] = molecular target: T1, rat LH receptor; experiment: receptor binding and signal transduction assays
human FSH receptor [8] = molecular target: T2, human FSH receptor; experiment: receptor binding and signal transduction assays
rat LH receptor [9] = molecular target: T1, rat LH receptor; experiment: inhibition of radiolabeled hCG binding to LH receptors (FIG. 22)
rat LH receptor [10] = molecular target: T1, rat LH receptor; experiment: inhibition of radiolabeled hCG binding to LH receptors (FIG. 23)

T1 sequence (P16235 27-700): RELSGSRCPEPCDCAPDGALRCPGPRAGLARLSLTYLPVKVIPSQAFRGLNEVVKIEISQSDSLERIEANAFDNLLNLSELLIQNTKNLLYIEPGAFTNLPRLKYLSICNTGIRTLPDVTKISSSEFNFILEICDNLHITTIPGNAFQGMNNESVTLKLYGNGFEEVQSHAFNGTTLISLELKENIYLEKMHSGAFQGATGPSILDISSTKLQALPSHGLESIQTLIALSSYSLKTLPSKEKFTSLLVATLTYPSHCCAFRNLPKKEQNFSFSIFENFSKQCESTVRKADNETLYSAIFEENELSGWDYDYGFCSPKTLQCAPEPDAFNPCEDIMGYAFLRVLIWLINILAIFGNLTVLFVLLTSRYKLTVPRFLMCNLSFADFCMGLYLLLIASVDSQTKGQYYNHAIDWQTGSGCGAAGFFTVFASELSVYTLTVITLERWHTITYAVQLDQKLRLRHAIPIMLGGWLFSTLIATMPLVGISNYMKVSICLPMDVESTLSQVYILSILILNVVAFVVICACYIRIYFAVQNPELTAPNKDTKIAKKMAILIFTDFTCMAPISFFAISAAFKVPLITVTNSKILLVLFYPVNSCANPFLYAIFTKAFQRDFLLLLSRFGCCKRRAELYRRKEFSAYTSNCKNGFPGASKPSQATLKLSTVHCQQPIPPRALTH

B1: CF101-109 (ligand)
chain 1: not shown
chain 2: SKEPLRPRCRPINATLAVEKEGCPVCITVNTTICAGYCPTMTRVLQGVLPALPQVVCNYRDVRFESIRLPGCPRGVNPVVSYAVALSCQCALCRRSTTDCTVRGLGPSYCDDPRFQDSSSSKAPPPSLPSPSRLPGPSDTPILPQ
binding result (rat LH receptor [1]): binds | binding result (human FSH receptor [2]): binds

B2: hCG(α31-β37) (ligand)
chain 1: not shown
chain 2: B1 chain 2 with Y37C, T101G, V102G, R103P, G104K, L105D, G106H, S108L, Y109T
notes: Intersubunit disulfide αCys31-βCys37; also called hCG3(α31-β37); crosslinked hCG analog
binding result (rat LH receptor [3]): binds

B3: hCG(α31-β37, α51-β99) (ligand)
chain 1: not shown
chain 2: B1 chain 2 with Y37C, D99C, T101G, V102G, R103P, G104K, L105D, G106H, S108L, Y109T
notes: Two intersubunit disulfides; also called α(C7S,K51C) + hCGβ′(Y37C,D99C)
binding result (rat LH receptor [4]): binds

B4: hCG(α-βD99C) (ligand)
chain 1: not shown
chain 2: B1 chain 2 with D99C, T101G, V102G, R103P, G104K, L105D, G106H, S108L, Y109T
notes: also called hCG(α-β99)
binding result (rat LH receptor [5]): binds

B5: hCG(αK51A-β) (ligand)
chain 1: not shown
chain 2: B1 chain 2 with T101G, V102G, R103P, G104K, L105D, G106H, S108L, Y109T
notes: built on the mature α-subunit entry
binding result (rat LH receptor [6]): binds

B6: CFC101-114 (ligand)
chain 1: not shown
chain 2: B1 chain 2 with D111S, D112F, P113G, R114E
notes: also called bifunctional hCG/hFSH chimeric analog
binding result (rat LH receptor [7]): binds | binding result (human FSH receptor [8]): binds

B7: CFC101-114(α31-β37) (ligand)
chain 1: not shown
chain 2: B1 chain 2 with Y37C, D111S, D112F, P113G, R114E
notes: Intersubunit disulfide αCys31-βCys37
binding result (rat LH receptor [7]): binds | binding result (human FSH receptor [8]): binds

B8: CFC101-114(α51-β99) (ligand)
chain 1: not shown
chain 2: B1 chain 2 with D99C, D111S, D112F, P113G, R114E
notes: Intersubunit disulfide αCys51-βCys99; also called CFC101(α51-β99)
fold less active than CFC101-114 in inhibiting radiolabeled hCG binding (rat LH receptor [9]): ~100 fold

B9: CFC101-114(αK51C-β) (ligand)
chain 1: not shown
chain 2: B1 chain 2 with D111S, D112F, P113G, R114E
binding result (rat LH receptor [9]): binds

B10: CFC101-114(αK51A-β) (ligand)
chain 1: not shown
chain 2: B1 chain 2 with D111S, D112F, P113G, R114E
notes: as for B5
binding result (rat LH receptor [10]): binds

B11: CFC101-114(α-βD99C) (ligand)
chain 1: not shown
chain 2: B1 chain 2 with D99C, D111S, D112F, P113G, R114E
binding result (rat LH receptor [9]): binds
